# Measurements from US20210155941A1 (KITE PHARMA EU B V, published 2021).
# B1: A*02:01/HPV16 E711-19 human TCR (fully human constant regions) expressed on transduced T cells (TCR, V domains shown)
# V domain 1: GQNIDQPTEMTATEGAIVQINCTYQTSGFNGLFWYQQHAGEAPTFLSYNVLDGLEEKGRFSSFLSRSKGYSYLLLKELQMKDSASYLCASVDGNNRLAFGKGNQVVVIP
# V domain 2: DAGVTQSPTHLIKTRGQQVTLRCSPKSGHDTVSWYQQALGQGPQFIFQYYEEEERQRGNFPDRFSGHQFPNYSSELNVNALLLGDSALYLCASSLGWRGGRYNEQFFGPGTRLTVLE
# Target: HLA-A*02:01/HPV16 E7 11-19 (…) peptide-MHC complex on target cells (Human Papilloma virus serotype 16 …)
# Assay: cell-based or functional assay
binder,measurement,value
B1,"EC50 of intracellular IFN-γ (ICCS, flow cytometry), CD4+ T cells td with the TCR vector lacking the miRαβ cassette, peptide-loaded T2 target cells",~52.4 nM
same,"EC50 of intracellular IFN-γ (ICCS, flow cytometry), CD4+ T cells td with the pMP71-miRαβ A*02:01/HPV16 E711-19 fHC TCR vector, peptide-loaded T2 target cells",~22.3 nM
same,"EC50 of intracellular IFN-γ (ICCS, flow cytometry), CD8+ T cells td with the TCR vector lacking the miRαβ cassette, peptide-loaded T2 target cells",~6.4 nM
same,"EC50 of intracellular IFN-γ (ICCS, flow cytometry), CD8+ T cells td with the miRαβ TCR vector (SEQ ID NO: 15), peptide-loaded T2 target cells",~3.4 nM
